According to publication PMC8229956:

Key:
[1] = target: Oryza sativa TIR1 wild type with nuclear localisation signal (OsTIR1^WT-NLS) (Oryza sativa)
[2] = target: Oryza sativa TIR1 wild type with nuclear localisation signal (OsTIR1^WT-NLS) (Oryza sativa); remark: listed apart in the source

reduction in Rad52-AID-V5 protein level (anti-V5 immunoblot of total extract, normalised to tubulin) in cells expressing OsTIR1^WT in the absence of NAA, against rad52-AID-V5 cells with no OsTIR1 [1]	reduction in Mcm4-AID-V5 protein level (anti-V5 immunoblot of total extract, normalised to tubulin) in cells expressing OsTIR1^WT in the absence of NAA, against cells with no OsTIR1 [2]	Substance
14%	–	Rad52-AID-V5 (from UniProt P93830 1-229)
–	14%	Mcm4-AID-V5 (from UniProt P93830 1-229)
